pKd: −log10 of the molar value.
Columns and labels:
His+Ala+TIMP2 (human) = His+Ala+TIMP2 (human) (UniProt P16035); experiment: SPR
[1] = biological target: His+Ala+TIMP2Q186 (human); experiment: SPR

Sequence of UniProt P16035 (P16035 26-220): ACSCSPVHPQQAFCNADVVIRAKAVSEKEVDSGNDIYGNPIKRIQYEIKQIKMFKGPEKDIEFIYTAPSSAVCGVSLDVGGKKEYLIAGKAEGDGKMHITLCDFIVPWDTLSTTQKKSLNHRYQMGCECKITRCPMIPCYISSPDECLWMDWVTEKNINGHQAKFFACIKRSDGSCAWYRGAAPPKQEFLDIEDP

pKd (His+Ala+TIMP2 (human)): 9.12
pKd [1]: 5.72
Substance: Recombinant C-domain of MMP2 (C-MMP2) (domain or fragment)

Reference: paper PMC10843048
